From article doi:10.1101/2025.08.14.670383

Molecular target: ADGRG1_h1h2: ADGRG1 receptor bearing the designed GAIN domain SS_h1h2, on HEK293T cells (human) (UniProt Q9Y653)
Chain of UniProt Q9Y653 (Q9Y653 26-693 V174C/S218C): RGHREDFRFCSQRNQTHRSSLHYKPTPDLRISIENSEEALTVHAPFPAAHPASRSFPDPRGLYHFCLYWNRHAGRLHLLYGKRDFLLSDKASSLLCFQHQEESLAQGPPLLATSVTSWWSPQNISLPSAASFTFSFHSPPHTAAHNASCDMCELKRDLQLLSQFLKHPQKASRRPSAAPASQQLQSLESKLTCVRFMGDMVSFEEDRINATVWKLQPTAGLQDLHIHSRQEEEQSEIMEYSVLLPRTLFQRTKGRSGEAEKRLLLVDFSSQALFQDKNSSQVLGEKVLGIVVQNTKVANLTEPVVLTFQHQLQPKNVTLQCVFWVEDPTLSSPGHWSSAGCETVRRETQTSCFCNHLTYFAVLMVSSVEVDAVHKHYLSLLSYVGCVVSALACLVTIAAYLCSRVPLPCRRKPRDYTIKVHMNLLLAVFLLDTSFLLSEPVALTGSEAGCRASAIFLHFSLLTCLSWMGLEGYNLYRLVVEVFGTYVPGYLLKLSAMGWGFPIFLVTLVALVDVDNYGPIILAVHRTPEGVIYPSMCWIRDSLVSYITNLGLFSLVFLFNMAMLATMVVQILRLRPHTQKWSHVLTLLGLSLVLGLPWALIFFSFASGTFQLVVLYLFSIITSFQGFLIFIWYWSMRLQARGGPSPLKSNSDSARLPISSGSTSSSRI

## native human collagen III (from UniProt P02461 154-1221) (ligand)
  Col3-induced increase in activity, SRE-luciferase assay in HEK293T cells: > 2 fold
